Read-outs that look alike come from different tables or passages of the source.
What was measured:
Experiment in all cases: cryo-EM structure
[1] = target: T1, E. coli [Cys541;Pro607]-σ^70 (E. coli, UniProt P00579 1-613, R541C | L607P)
[2] = target: E. coli NusA (E. coli, UniProt P0AFF6 1-495)
[3] = target: T1, E. coli [Cys541;Pro607]-σ^70; remark: listed apart in the source

B1: wild-type Qλ (Q protein of bacteriophage λ) (natural protein, UniProt P03047 1-207, looked up)
chain: MRLESVAKFHSPKSPMMSDSPRATASDSLSGTDVMAAMGMAQSQAGFGMAAFCGKHELSQNDKQKAINYLMQFAHKVSGKYRGVAKLEGNTKAKVLQVLATFAYADYCRSAATPGARCRDCHGTGRAVDIAKTELWGRVVEKECGRCKGVGYSRMPASAAYRAVTMLIPNLTQPTWSRTVKPLYDALVVQCHKEESIADNILNAVTR
- binding result [1]: binds
- binding result [2]: binds

B2: Qλ^M1S (Q protein of bacteriophage λ, M1S derivative) (natural protein, UniProt P03047 1-207, looked up)
chain: SRLESVAKFHSPKSPMMSDSPRATASDSLSGTDVMAAMGMAQSQAGFGMAAFCGKHELSQNDKQKAINYLMQFAHKVSGKYRGVAKLEGNTKAKVLQVLATFAYADYCRSAATPGARCRDCHGTGRAVDIAKTELWGRVVEKECGRCKGVGYSRMPASAAYRAVTMLIPNLTQPTWSRTVKPLYDALVVQCHKEESIADNILNAVTR
- binding result [3]: binds

Reference: article doi:10.1101/2022.03.25.485794 (bioRxiv, 2022)
